Measured values reported in patent US20190177422A1 (SORRENTO THERAPEUTICS, published 2019).
Values belong to the binder of their own block, whether it stands above or below them.

Molecular target: T1, OX40 on OX40+ HEK293-NFkB-luciferase reporter stable cells (UniProt P43489 29-277)
T1 sequence (looked up): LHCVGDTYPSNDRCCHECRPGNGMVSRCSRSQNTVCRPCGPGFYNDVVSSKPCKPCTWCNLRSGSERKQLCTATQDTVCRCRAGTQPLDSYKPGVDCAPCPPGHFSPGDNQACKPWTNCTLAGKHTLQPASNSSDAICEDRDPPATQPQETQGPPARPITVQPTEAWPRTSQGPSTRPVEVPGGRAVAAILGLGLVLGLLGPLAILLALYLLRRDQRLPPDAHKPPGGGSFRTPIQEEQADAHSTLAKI
Experiment: cell-based or functional assay

luciferase activity (RLUs) of OX40+ HEK293-NFkB-luciferase reporter cells, ~6 h stimulation, antibody at 20 µg/ml: > 50 % of signal observed with purified rhOX40L+anti-His
B1: OX1C4 (antibody, V domains shown)
VH: EVQLVESGAEVKKPGASVKVSCKTSGYTFTGYYLHWVRQAPGQGLEWMGIINPGDGSTRNAQKFEGRVTMTRDTSTSTVYMELSSLSPEDTAVYYCARDLEYIGSGSLSWFDPWGQGTLVTVSS
VL: LPVLTQPASVSGSPGQSITISCSGTSSDFLTYDLVSWYKQQPGKAPKLMIYDVNKRPSGVSDRFSGSKSGNTASLTISGLQAADEADYYCSSYTSSSTPYVFGTGTKVTVL

luciferase activity (RLUs) of OX40+ HEK293-NFkB-luciferase reporter cells, ~6 h stimulation, antibody at 20 µg/ml: > 50 % of signal observed with purified rhOX40L+anti-His
B2: OX1D9 (antibody, V domains shown)
VH: QVQLVQSGAEVKKPGASVKVSCKASGYTFTSYGISWVRQALGQRLEWLGWINAGDGETKYSPKFQGRVTITRDTSASTAYMDLSGLTSEDTAVYYCARDFLSTMDYWGQGTLVTVSS
VL: DVVMTQSPSSLSASVGDRVTITCQASQDISNYLNWYQQKPGKAPKLLIYDASNLETGVPSRFSGGGSGTDFTFTISSLQPEDIATYYCQQFDNLPYTFGQGTKVEIK

Continued, binder first:

B3: OX1B2 (antibody, V domains shown)
VH: QVQLVQSGAEVKKPGASVKVSCKASGYTFTSYYMHWVRQAPGQGLEWMGIINPSGGSTSYAQKFQGRVTMTRDTSTSTVYMELSSLRSEDTAVYYCARDYYDSSGYSDYGMDVWGQGTTVTVSS
VL: DIVMTQSPSSLSASVGDRVTITCRASQSISSYLNWYQQKPGKAPKLLIYAASSLQSGVPSRFSGSGSGTDFTLTISSLQPEDFAIYYCQQNYNTRQVTFGQGTRLEIK
luciferase activity (RLUs) of OX40+ HEK293-NFkB-luciferase reporter cells, ~6 h stimulation, antibody at 20 µg/ml: > 50 % of signal observed with purified rhOX40L+anti-His

B4: OX4D7 (antibody, V domains shown)
VH: QVQLVQSGAEVKKPGASVKVSCKASGYTFTSYYMHWVRQAPGQGLEWMGIINPSGGSTSYAQKFQGRVTMTTDTSTSTAYMELRSLRSDDTAVYYCARDPYSSSWYGAEYFQHWGQGTLVTVSS
VL: QSVLTQPRSVSGSPGQSVTISCTGTSSDGGDYNYVSWYQQHPGQAPKLLIYEVSNRPSGVSNRFSGSKSGNTASLTISGLQAEDEADYYCSSYTSSSTLVVFGGGTKLTVL
luciferase activity (RLUs) of OX40+ HEK293-NFkB-luciferase reporter cells, ~6 h stimulation, antibody at 20 µg/ml: > 50 % of signal observed with purified rhOX40L+anti-His
